According to publication PMC2935576 (The Journal of Cell Biology, 2010):
Values belong to the molecule of their own block, whether it stands above or below them.

Assays:
[1] = biological target: Spc105p 800-829 (UniProt P53148); experiment: ITC, Spc105p peptide 1 with MIND complex; conditions: reference: untreated MIND complex; sites S250
[2] = biological target: recombinant S. cerevisiae NDC80 complex (Ndc80p, Nuf2p, Spc24p, Spc25p), His-tagged on Ndc80p (S. cerevisiae, UniProt P40460;P33895;Q04477;P40014); experiment: ITC
[3] = biological target: T1, Dsn1p–Nsl1p heterodimer (S. cerevisiae, UniProt P40568;Q12143); experiment: AUC
T1 sequence 1: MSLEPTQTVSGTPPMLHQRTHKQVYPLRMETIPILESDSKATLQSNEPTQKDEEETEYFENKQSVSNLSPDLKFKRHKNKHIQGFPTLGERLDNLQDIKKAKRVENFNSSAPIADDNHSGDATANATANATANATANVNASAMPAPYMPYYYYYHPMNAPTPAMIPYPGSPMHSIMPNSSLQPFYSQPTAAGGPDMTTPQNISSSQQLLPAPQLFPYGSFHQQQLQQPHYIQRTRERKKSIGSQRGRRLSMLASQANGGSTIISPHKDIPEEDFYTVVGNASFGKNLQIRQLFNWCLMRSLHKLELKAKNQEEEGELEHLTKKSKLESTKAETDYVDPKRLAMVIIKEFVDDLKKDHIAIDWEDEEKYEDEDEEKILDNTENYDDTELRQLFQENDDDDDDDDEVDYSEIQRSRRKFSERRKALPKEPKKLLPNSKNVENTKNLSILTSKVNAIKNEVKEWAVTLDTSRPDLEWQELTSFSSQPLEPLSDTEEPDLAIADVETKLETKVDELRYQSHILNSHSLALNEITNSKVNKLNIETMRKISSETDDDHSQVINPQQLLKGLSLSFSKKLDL
T1 sequence 2: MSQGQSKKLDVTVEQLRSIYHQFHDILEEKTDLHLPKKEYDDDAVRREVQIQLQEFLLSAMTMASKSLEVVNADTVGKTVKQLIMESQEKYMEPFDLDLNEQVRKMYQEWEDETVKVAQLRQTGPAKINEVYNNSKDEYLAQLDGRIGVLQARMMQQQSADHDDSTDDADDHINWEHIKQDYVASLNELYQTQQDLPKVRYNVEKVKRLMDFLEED

[4] = biological target: T2, Dsn1p residues 103–412 (trypsin-resistant fragment) (S. cerevisiae, UniProt P40568 103-412); experiment: limited proteolysis
T2 sequence: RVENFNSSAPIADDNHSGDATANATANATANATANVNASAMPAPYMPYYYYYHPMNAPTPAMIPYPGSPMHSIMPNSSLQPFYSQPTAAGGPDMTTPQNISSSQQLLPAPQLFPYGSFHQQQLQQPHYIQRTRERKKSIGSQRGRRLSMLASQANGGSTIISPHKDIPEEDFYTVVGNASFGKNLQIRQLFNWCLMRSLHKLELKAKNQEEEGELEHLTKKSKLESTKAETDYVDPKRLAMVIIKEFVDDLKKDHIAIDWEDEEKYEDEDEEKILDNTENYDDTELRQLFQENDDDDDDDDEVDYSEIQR

[5] = biological target: T3, Mtw1p residues 1–220 (trypsin-resistant fragment) (S. cerevisiae, UniProt P39731 1-220); experiment: limited proteolysis
T3 sequence: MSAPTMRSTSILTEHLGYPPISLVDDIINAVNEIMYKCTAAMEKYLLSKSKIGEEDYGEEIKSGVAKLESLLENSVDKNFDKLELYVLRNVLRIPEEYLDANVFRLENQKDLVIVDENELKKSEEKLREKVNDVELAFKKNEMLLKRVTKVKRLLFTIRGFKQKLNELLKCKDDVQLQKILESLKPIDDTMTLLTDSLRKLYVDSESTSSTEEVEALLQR

Chain of recombinant S. cerevisiae NDC80 complex (Ndc80p, Nuf2p, Spc24p, Spc25p), His-tagged on Ndc80p (P40460 whole entry, chain 1 of 4): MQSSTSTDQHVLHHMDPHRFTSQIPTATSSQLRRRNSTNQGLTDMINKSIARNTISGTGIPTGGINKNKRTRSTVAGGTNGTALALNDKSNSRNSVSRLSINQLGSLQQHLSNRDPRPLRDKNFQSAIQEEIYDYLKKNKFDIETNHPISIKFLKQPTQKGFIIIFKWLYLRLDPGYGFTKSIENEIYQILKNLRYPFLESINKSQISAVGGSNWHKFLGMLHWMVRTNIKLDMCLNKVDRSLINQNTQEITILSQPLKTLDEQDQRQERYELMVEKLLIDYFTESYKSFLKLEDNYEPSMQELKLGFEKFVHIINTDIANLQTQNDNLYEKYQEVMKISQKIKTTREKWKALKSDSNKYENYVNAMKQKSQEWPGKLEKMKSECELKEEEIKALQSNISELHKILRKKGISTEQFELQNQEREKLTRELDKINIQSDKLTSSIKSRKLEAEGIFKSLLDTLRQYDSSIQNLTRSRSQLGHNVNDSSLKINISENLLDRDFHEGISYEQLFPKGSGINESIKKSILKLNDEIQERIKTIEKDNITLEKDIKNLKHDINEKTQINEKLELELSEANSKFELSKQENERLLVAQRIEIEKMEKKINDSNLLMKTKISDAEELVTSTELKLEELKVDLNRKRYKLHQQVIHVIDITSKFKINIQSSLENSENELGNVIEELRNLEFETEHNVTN
Chain of recombinant S. cerevisiae NDC80 complex (Ndc80p, Nuf2p, Spc24p, Spc25p), His-tagged on Ndc80p (P33895 whole entry, chain 2 of 4): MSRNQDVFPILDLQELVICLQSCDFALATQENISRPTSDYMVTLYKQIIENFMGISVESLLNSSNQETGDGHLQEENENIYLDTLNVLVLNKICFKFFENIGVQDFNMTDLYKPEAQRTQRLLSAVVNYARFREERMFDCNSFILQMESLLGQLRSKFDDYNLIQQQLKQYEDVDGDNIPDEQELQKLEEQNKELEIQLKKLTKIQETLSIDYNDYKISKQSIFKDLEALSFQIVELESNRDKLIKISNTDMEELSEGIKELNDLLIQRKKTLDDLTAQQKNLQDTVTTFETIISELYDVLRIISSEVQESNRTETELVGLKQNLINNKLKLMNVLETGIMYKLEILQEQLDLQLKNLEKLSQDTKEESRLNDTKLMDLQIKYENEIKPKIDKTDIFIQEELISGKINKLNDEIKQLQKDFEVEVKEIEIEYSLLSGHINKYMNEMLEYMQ
Chain of recombinant S. cerevisiae NDC80 complex (Ndc80p, Nuf2p, Spc24p, Spc25p), His-tagged on Ndc80p (Q04477 whole entry, chain 3 of 4): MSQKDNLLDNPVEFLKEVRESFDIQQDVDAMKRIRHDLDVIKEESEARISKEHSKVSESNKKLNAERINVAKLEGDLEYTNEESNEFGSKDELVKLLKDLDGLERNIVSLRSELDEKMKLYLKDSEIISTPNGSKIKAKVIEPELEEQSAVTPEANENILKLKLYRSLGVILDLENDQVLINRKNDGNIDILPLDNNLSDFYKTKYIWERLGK
Chain of recombinant S. cerevisiae NDC80 complex (Ndc80p, Nuf2p, Spc24p, Spc25p), His-tagged on Ndc80p (P40014 whole entry, chain 4 of 4): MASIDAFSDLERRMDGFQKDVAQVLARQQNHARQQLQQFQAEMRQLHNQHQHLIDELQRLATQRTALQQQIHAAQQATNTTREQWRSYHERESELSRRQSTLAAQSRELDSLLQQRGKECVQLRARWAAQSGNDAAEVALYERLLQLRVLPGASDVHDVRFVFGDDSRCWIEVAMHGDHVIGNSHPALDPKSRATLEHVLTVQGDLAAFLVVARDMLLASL

Molecule: Dsn1p (from UniProt P40568) Ipl1p-phosphorylated MIND complex (Dsn1p pS250)
- binding against the reference [1]: same

- binding result [2]: binds
B1: MIND complex phosphorylated on Dsn1p Ser250 by Ipl1p (complex)
chain 1: MSLEPTQTVSGTPPMLHQRTHKQVYPLRMETIPILESDSKATLQSNEPTQKDEEETEYFENKQSVSNLSPDLKFKRHKNKHIQGFPTLGERLDNLQDIKKAKRVENFNSSAPIADDNHSGDATANATANATANATANVNASAMPAPYMPYYYYYHPMNAPTPAMIPYPGSPMHSIMPNSSLQPFYSQPTAAGGPDMTTPQNISSSQQLLPAPQLFPYGSFHQQQLQQPHYIQRTRERKKSIGSQRGRRLSMLASQANGGSTIISPHKDIPEEDFYTVVGNASFGKNLQIRQLFNWCLMRSLHKLELKAKNQEEEGELEHLTKKSKLESTKAETDYVDPKRLAMVIIKEFVDDLKKDHIAIDWEDEEKYEDEDEEKILDNTENYDDTELRQLFQENDDDDDDDDEVDYSEIQRSRRKFSERRKALPKEPKKLLPNSKNVENTKNLSILTSKVNAIKNEVKEWAVTLDTSRPDLEWQELTSFSSQPLEPLSDTEEPDLAIADVETKLETKVDELRYQSHILNSHSLALNEITNSKVNKLNIETMRKISSETDDDHSQVINPQQLLKGLSLSFSKKLDL
chain 2: MSAPTMRSTSILTEHLGYPPISLVDDIINAVNEIMYKCTAAMEKYLLSKSKIGEEDYGEEIKSGVAKLESLLENSVDKNFDKLELYVLRNVLRIPEEYLDANVFRLENQKDLVIVDENELKKSEEKLREKVNDVELAFKKNEMLLKRVTKVKRLLFTIRGFKQKLNELLKCKDDVQLQKILESLKPIDDTMTLLTDSLRKLYVDSESTSSTEEVEALLQRLKTNGKQNNKDFRTRYIDIRTNNVLRKLGLLGDKEDEKQSAKPDARTQAGDIVSIDIEEPQLDLLDDVL
chain 3: MVNSHGIRYIRLKQVFNRALDQSISKLQSWDKVSSCFPQYVNSKQGAINVANCQRQLTEFWTELCQREFKEIMEERNVEQKLNELDELILEAKERYTDRDQDEVNKGPAIDELSSKELVECHLYSQRMHAIHEIDERLAKVNEMNDQLAQELKDLETQVEVEKNEIGKMYDEYLGSHTDQPANVLLVQSLNDMVLELKENY
chain 4: MSQGQSKKLDVTVEQLRSIYHQFHDILEEKTDLHLPKKEYDDDAVRREVQIQLQEFLLSAMTMASKSLEVVNADTVGKTVKQLIMESQEKYMEPFDLDLNEQVRKMYQEWEDETVKVAQLRQTGPAKINEVYNNSKDEYLAQLDGRIGVLQARMMQQQSADHDDSTDDADDHINWEHIKQDYVASLNELYQTQQDLPKVRYNVEKVKRLMDFLEED
modifications: phosphoserine at 250

- stoichiometry N [3]: 1
B2: Mtw1p–Nnf1p heterodimer (complex)
chain 1: MSAPTMRSTSILTEHLGYPPISLVDDIINAVNEIMYKCTAAMEKYLLSKSKIGEEDYGEEIKSGVAKLESLLENSVDKNFDKLELYVLRNVLRIPEEYLDANVFRLENQKDLVIVDENELKKSEEKLREKVNDVELAFKKNEMLLKRVTKVKRLLFTIRGFKQKLNELLKCKDDVQLQKILESLKPIDDTMTLLTDSLRKLYVDSESTSSTEEVEALLQRLKTNGKQNNKDFRTRYIDIRTNNVLRKLGLLGDKEDEKQSAKPDARTQAGDIVSIDIEEPQLDLLDDVL
chain 2: MVNSHGIRYIRLKQVFNRALDQSISKLQSWDKVSSCFPQYVNSKQGAINVANCQRQLTEFWTELCQREFKEIMEERNVEQKLNELDELILEAKERYTDRDQDEVNKGPAIDELSSKELVECHLYSQRMHAIHEIDERLAKVNEMNDQLAQELKDLETQVEVEKNEIGKMYDEYLGSHTDQPANVLLVQSLNDMVLELKENY

- binding result [4]: binds
B3: Nsl1p (natural protein)
chain: MSQGQSKKLDVTVEQLRSIYHQFHDILEEKTDLHLPKKEYDDDAVRREVQIQLQEFLLSAMTMASKSLEVVNADTVGKTVKQLIMESQEKYMEPFDLDLNEQVRKMYQEWEDETVKVAQLRQTGPAKINEVYNNSKDEYLAQLDGRIGVLQARMMQQQSADHDDSTDDADDHINWEHIKQDYVASLNELYQTQQDLPKVRYNVEKVKRLMDFLEED

- binding result [5]: binds
B4: Nnf1p (natural protein)
chain: MVNSHGIRYIRLKQVFNRALDQSISKLQSWDKVSSCFPQYVNSKQGAINVANCQRQLTEFWTELCQREFKEIMEERNVEQKLNELDELILEAKERYTDRDQDEVNKGPAIDELSSKELVECHLYSQRMHAIHEIDERLAKVNEMNDQLAQELKDLETQVEVEKNEIGKMYDEYLGSHTDQPANVLLVQSLNDMVLELKENY
